Assay results: publication PMC5428264, “Dentin sialoprotein facilitates dental mesenchymal cell differentiation and dentin formation” (Scientific Reports, 2017)

Columns and labels:
[1] = biological target: T1, GST-DSPf5 fusion protein (COOH-terminal DSP domain aa 363–458) (mouse, UniProt P97399 363-458); experiment: co-IP; in vitro immunoprecipitation: 10 μg of purified GST-DSP and GST-Ocln fusion proteins mixed, precipitated with DSP or Ocln antibody and protein G Sepharose, blotted with the other antibody; conditions: both partners purified
T1 construct: also called DSP peptide; source: E. coli BL21, purified (GSTrap 4B)
T1 sequence (looked up): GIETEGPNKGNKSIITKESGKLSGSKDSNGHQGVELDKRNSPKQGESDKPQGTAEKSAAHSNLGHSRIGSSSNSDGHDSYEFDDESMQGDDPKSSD

[2] = biological target: T2, biotinylated DSPf5 (recombinant DSP aa 363–458) (mouse, UniProt P97399 363-458, biotin (Sulfo-NHS-LC-biotin)); experiment: ELISA; substrate binding assay: OclnL2 coated at 1 μg per well (BSA as control), biotinylated DSPf5 at 0–18 fold molar excess in PBS with 1% BSA, room temperature, different time periods; AP-conjugated streptavidin, PNPP, 405 nm; conditions: both partners purified
T2 construct: The same recombinant protein as m6, labelled with biotin; source: E. coli BL21, purified (GSTrap 4B), then reacted with Sulfo-NHS-LC-biotin
T2 sequence (looked up): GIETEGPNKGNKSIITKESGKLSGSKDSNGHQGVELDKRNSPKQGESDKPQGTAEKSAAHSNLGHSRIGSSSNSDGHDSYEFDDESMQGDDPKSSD

B1: GST-OclnL2 fusion protein (occludin extracellular loop 2, aa 194–241) (domain or fragment, mouse, UniProt Q61146 194-241, looked up)
chain: GVNPTAQASGSMYGSQIYMICNQFYTPGGTGLYVDQYLYHYCVVDPQE
notes: occludin, mouse, extracellular loop 2, residues 194-241 counted from the translation start site; Cloned into pGEX-6P3 from pBluescript SK-Ocln; also called Ocln loop2; extracellular loop 2 of Ocln; source: E. coli BL21, purified (GSTrap 4B)
B1: binds [1]; binds [2].
